± gives the standard deviation of the averaged measurements.
Test system: ATP
Assay: switch fluorescence ratio, 500 uM ATP over buffer (Cy3 cluster intensity, sum of 5 cycles each) (fold (ratio)); higher = stronger signal-on switching upon ATP binding; sequences stand for … in TCGTCGGCAGCGTCAGATGTGTATAAGAGACAGTTTTTTTTTTTTTTTTTTTTTTTTT…TC
Settings: aptamer strand: ATP DNA aptamer (quencher-CACCTGGGGGAGTATTGCGGAGGAAGG + anchor), 100 nM annealed; ATP concentration: 500 uM
Summary of the method: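 Between each of five buffer/ATP cycles, the flow-cell was stripped with NaOH and re-annealed. Each cycle imaged Cy3-labelled switching-strand clusters, annealed to 100 nM quencher-labelled ATP aptamer on a modified Illumina MiSeq flow-cell, first in selection buffer and then after 15 min with 500 uM ATP at 22 °C. The fluorescence ratio is summed target-cycle over summed buffer-cycle Cy3 intensity per cluster, averaged per switch-domain sequence, with clusters outside 100-1000 RFU excluded.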
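Also: ATP exposure 15 min at 22 °C before imaging.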

| Sequence | switch fluorescence ratio |
| --- | --- |
| TGGGGGGAGA | 1.01 ± 0.045 |
| TGTGTAATTG | 1.01 ± 0.032 |
| GGGACAATAT | 1.02 ± 0.044 |
| TATCGCGTTC | 1.09 ± 0.078 |
| GAGGGATGGT | 1.01 ± 0.029 |
| TTTGGTGCCC | 1.03 ± 0.029 |
| CAGTAGCGG | 1.14 ± 0.018 |
| TATTGGGCAG | 1.01 ± 0.023 |
| ATGATGTAAT | 0.995 ± 0.051 |
| GTAGTGAGCT | 0.999 ± 0.05 |
| GGCGCGCGGG | 0.991 ± 0.00073 |
| TAGGTTTGAA | 0.9922 ± 0.0018 |
| GGGGTCAGTT | 0.973 ± 0.025 |
| GTCTTTTAGG | 0.9981 ± 0.0086 |
| AAAAGCAGTT | 1.028 ± 0.004 |
| GTGTATGGAT | 1.023 ± 0.0066 |
| TACGCTTAGC | 1.1 ± 0.031 |
| AAAGAGCCTT | 1.13 ± 0.2 |
| TTGTTCCAGC | 0.985 ± 0.047 |
| TGGGTCTAGG | 0.99 ± 0.043 |
| CGGCACCACA | 1.08 ± 0.015 |
| GGGGGAGTAG | 0.983 ± 0.016 |
| AATATTCCAT | 1.02 ± 0.045 |
| CCTGGACTCG | 1.02 ± 0.03 |
| GCGTAAAGGG | 0.99 ± 0.043 |

| Sequence | switch fluorescence ratio |
| --- | --- |
| CGATACACGT | 1.04 ± 0.029 |
| CTTATTTGGC | 1.032 ± 0.0017 |
| TATCATCGGT | 1 ± 0.047 |
| AATAAGGCCG | 0.996 ± 0.076 |
| GGATCGGGGC | 0.994 ± 0.046 |
| GCCGTGTTTT | 1.006 ± 0.0018 |
| TAGACATGTT | 1 ± 0.13 |
| AGAAGGCGGC | 1 ± 0.023 |
| GGGGGAGGGT | 0.997 ± 0.036 |
| TTTTGATGCG | 0.982 ± 0.031 |
| CATGGTGTGT | 1.01 ± 0.011 |
| GTTCTCAGAT | 0.982 ± 0.013 |
| GTGGAAATAG | 1.01 ± 0.05 |
| ATCTGATGTC | 0.978 ± 0.018 |
| GGTTGAAGGT | 1 ± 0.03 |
| TTTTTCGACG | 1.1 ± 0.21 |
| TGTGAGCAGG | 1.15 ± 0.044 |
| TTGTTTGCAA | 1.52 ± 0.74 |
| TGCAGTGAAT | 0.999 ± 0.026 |
| TTGAGTAACT | 0.967 ± 0.024 |
| ACTCGTAGCA | 1.19 ± 0.012 |
| AGTCACTTAG | 1.05 ± 0.015 |
| TTCAATTTTT | 0.997 ± 0.021 |
| TTCGGGGAAT | 0.982 ± 0.034 |
| TATAAAGTGG | 1.03 ± 0.022 |

| Sequence | switch fluorescence ratio |
| --- | --- |
| GCGTTAGCGC | 0.968 ± 0.012 |
| AGAGACACGG | 1.03 ± 0.079 |
| GCTTTATAGT | 0.985 ± 0.049 |
| TGGCCCGGGA | 0.9878 ± 0.0035 |
| CAATGTAGGG | 1.004 ± 0.0077 |
| ATGGTCTGGG | 0.971 ± 0.011 |
| GACCTCAGAC | 1.09 ± 0.024 |
| CGAAGGATTG | 0.992 ± 0.015 |
| ACGTTACTAC | 1.52 ± 0.03 |
| GCTATAGTGT | 0.992 ± 0.021 |
| ATGTTAACGG | 1.01 ± 0.012 |
| GGGTGTGGGA | 0.997 ± 0.017 |
| GAACCGATGT | 1.009 ± 0.0089 |
| GGTACAGTTA | 0.985 ± 0.016 |
| TGGTGGAAAC | 0.99116 ± 0.00084 |
| ACTGTGCTCT | 1.02 ± 0.016 |
| TCGTGGGGAG | 0.982 ± 0.015 |
| GTAATTGGAG | 0.992 ± 0.016 |
| TGTTGTTTGT | 1.02 ± 0.026 |
| TGAGTTTTTA | 0.9956 ± 0.0072 |
| GGTTTCTAAG | 1.01 ± 0.042 |
| AACTATAAAA | 1 ± 0.014 |
| GCAGCTGGCG | 1.04 ± 0.017 |
| CGTGGATAGC | 1.02 ± 0.055 |
| TGGTCCGGGA | 1.03 ± 0.029 |

| Sequence | switch fluorescence ratio |
| --- | --- |
| CGTTTGAGTG | 1.02 ± 0.023 |
| TGGAGCCAGT | 1.01 ± 0.041 |
| TAATTTAAGG | 0.993 ± 0.039 |
| CAGCTAGATA | 0.9987 ± 0.0065 |
| ACCCGAGCAT | 1.79 ± 0.12 |
| ACTTTTTAGG | 1.01 ± 0.044 |
| GACACCAATC | 1.36 ± 0.052 |
| ATCGAGAACG | 0.993 ± 0.014 |
| TAAGCGTTGT | 0.98 ± 0.054 |
| TTGAGGTCGT | 1.023 ± 0.0038 |
| GGTATTAGGG | 1.002 ± 0.0014 |
| TTAATCTAGC | 0.991 ± 0.021 |
| AGAAAATTTC | 1.04 ± 0.051 |
| CTAGAAAGGG | 0.999 ± 0.02 |
| AAAAATATGC | 0.996 ± 0.017 |
| GCGACGGGCG | 0.972 ± 0.044 |
| CTTAAATGTT | 1.014 ± 0.0078 |
| GCGGGCGATG | 0.9902 ± 0.00014 |
| GAAAGTGGTG | 0.9921 ± 0.0055 |
| GTTAATACCC | 1.04 ± 0.014 |
| CCCTCTATTC | 1.06 ± 0.03 |
| AGCGATTATA | 0.991 ± 0.0037 |
| GAGGGGGAGG | 0.982 ± 0.019 |
| GATGCAGGCC | 0.892 ± 0.017 |
| ATACGAAGGC | 0.985 ± 0.093 |
